According to IntAct's records for PubMed 17923090:

What follows are substances tested against stat1_human STAT1 (UniProt P42224).
Chain of stat1_human STAT1 (P42224 whole entry): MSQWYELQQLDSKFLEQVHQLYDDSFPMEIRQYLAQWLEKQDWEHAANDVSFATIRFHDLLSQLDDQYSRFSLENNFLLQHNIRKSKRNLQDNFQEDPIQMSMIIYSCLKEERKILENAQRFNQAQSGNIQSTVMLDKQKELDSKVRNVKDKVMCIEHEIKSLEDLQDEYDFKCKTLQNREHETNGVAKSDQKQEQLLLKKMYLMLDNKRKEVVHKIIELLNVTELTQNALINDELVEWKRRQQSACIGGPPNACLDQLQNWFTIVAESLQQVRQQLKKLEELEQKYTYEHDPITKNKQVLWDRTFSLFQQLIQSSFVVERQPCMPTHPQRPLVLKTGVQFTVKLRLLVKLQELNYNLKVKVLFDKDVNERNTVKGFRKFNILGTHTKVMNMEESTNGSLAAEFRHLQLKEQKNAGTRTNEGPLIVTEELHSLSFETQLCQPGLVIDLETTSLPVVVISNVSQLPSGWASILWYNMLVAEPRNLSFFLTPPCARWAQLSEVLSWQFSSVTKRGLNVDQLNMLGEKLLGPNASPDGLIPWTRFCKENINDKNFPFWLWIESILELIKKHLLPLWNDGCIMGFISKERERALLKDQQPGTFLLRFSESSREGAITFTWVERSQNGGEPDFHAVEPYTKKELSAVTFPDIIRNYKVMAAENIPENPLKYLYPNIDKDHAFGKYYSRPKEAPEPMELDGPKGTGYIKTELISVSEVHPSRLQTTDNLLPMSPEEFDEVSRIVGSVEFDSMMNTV

| effect of a mutation on the interaction | Substance |
| --- | --- |
| decreasing interaction | Signal transducer and activator of transcription 2 (Homo sapiens), P52630 K419R |
| decreasing interaction | Signal transducer and activator of transcription 2 (Homo sapiens), P52630 K384R |
| increasing interaction | Signal transducer and activator of transcription 2 (Homo sapiens), P52630 K390R |
| increasing interaction | Signal transducer and activator of transcription 2 (Homo sapiens), P52630 K415R |
